Common to all, as to assay: ELISA
(In general: ELISA stands for enzyme-linked immunosorbent assay.)

Assay [1] addresses αvβ5.
Assay [2] has as its target T1, Platelet glycoprotein IIb/IIIa (human, UniProt P08514 32-1039; P05106 27-788).
The target of assay [3] is αvβ5. This is another data set of the same source.
Assay [4] addresses αvβ5. The source holds these as a separate data set.
In assay [5] the target is T1, Platelet glycoprotein IIb/IIIa. The source holds these as a separate data set.
For assay [6], the target named is T2, Fibronectin receptor (human, UniProt P08648 42-1049; P05556 21-798).
T2 sequence (P08648 42-1049, chain 1 of 2): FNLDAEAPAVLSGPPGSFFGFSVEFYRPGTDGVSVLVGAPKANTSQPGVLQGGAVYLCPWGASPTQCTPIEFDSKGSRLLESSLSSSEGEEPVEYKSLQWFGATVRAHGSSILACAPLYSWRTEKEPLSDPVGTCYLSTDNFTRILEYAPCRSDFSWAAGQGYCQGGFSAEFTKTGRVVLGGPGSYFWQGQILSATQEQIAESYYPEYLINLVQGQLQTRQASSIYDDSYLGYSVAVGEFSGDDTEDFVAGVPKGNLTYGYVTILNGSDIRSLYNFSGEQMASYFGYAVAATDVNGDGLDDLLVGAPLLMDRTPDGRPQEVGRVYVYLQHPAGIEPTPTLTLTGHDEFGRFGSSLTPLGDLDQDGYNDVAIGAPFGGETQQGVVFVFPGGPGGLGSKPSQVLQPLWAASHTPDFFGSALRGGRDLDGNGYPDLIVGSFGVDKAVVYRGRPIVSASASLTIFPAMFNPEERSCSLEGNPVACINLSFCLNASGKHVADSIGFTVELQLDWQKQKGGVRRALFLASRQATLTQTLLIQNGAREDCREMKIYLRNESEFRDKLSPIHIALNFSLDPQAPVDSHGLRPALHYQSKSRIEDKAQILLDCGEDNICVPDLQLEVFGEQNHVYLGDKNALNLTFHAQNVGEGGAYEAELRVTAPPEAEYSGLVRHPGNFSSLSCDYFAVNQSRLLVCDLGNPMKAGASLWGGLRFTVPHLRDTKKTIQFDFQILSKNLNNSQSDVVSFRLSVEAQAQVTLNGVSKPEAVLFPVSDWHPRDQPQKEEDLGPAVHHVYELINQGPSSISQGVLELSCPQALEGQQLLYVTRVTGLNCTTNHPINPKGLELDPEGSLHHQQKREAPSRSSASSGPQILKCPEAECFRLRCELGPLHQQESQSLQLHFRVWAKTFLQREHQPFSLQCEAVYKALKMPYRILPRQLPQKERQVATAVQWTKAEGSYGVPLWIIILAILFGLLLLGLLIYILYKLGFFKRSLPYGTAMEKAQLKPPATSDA
T2 sequence (P05556 21-798, chain 2 of 2): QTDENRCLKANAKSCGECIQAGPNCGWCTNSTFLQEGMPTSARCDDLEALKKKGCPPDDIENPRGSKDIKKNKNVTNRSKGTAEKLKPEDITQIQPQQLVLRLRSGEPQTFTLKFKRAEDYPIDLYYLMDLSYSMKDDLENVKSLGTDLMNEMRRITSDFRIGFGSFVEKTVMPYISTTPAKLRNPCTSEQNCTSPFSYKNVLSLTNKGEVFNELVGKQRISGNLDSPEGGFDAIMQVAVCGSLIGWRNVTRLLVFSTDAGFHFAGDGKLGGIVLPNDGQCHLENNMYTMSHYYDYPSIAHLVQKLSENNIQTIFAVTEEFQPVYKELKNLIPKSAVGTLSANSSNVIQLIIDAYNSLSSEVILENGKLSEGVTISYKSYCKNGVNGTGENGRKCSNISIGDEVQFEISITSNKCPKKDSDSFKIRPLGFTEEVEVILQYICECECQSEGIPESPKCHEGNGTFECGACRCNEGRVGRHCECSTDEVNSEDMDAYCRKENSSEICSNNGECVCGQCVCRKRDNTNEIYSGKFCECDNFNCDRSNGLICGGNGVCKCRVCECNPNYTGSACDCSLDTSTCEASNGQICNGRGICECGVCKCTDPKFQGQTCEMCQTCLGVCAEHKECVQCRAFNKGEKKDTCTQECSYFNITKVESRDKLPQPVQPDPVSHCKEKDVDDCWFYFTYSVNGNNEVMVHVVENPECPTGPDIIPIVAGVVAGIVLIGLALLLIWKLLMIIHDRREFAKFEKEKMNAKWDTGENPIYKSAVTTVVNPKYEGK
Assay [7] deals with T1, Platelet glycoprotein IIb/IIIa. This is another data set of the same source.
In assay [8] the target is αvβ5. This is another data set of the same source.
Assay [9] addresses αvβ5. The source holds these as a separate data set.
Assay [10] concerns the target T2, Fibronectin receptor. The source holds these as a separate data set.
Assay [11] has as its target T2, Fibronectin receptor. This is another data set of the same source.

Results on 17 molecules are retold here after US6521594 (dated 2003).

Where two headings read alike, the source gives them in different places. Starred links: 1 amine or outer side, 2 acyl side, 3 side chain; linkers in the order of their positions; H or OH if unused. Positions of bridges follow the written chain, without caps; N, C: chain ends. Non-standard residues stand in square brackets, D forms with d. Primed or numbered codes have the meaning given here. No end group written: not given here. *: point of attachment. Tyr(OMe)″ = O-methyl-tyrosine (Y-OMe, TyrOMe, O-Me-Tyr), COc1ccc(C[C@H](N[*:1])C(=O)[*:2])cc1; Tyr(Me) = O-methyl-tyrosine (Y-OMe, O-Me-Tyr), COc1ccc(C[C@H](N[*:1])C(=O)[*:2])cc1; Tyr(nBu) = O-n-butyl-tyrosine, CCCCOc1ccc(C[C@H](N[*:1])C(=O)[*:2])cc1; Cys(β,β-pentamethylene) = O=C([C@@H](N[*:1])C1(S[*:3])CCCCC1)[*:2]; Y‑OMe = O-methyl-tyrosine, COc1ccc(C[C@H](N[*:1])C(=O)[*:2])cc1; Cyclohexylacetyl(1-SH) = O=C(CC1(S)CCCCC1)*; Phe(4-I) = N[C@@H](Cc1ccc(I)cc1)C(=O)O; hPhe = N[C@@H](CCc1ccccc1)C(=O)O; dPen = CC(C)(S)[C@@H](N)C(=O)O; Pen = CC(C)(S)[C@H](N)C(=O)O; code O = not defined here; Tmc = not defined here

B1: G(D-Pen)GHRGDLRCA (peptide)
peptide: G[dPen]GHRGDLRCA
modifications: disulfide 2-10
On to B1, for which the IC50 – broadly, the concentration at which inhibition is half-maximal – with αvβ5 [1] amounted to 5270 nM.

B2: R(Tmc)GHRGDLRCR (peptide)
peptide: R[Tmc]GHRGDLRCR
modifications: disulfide (positions not given here); reading uncertain; also: Tmc2 as D,L mixture of diastereomers, printed as R(Tmc)GHRGDLRCR
As to B2, the IC50 in assay [2] is 30 nM.

B3: R(Pmc)GHRGD(Hpa)RCR (peptide)
peptide: R[Cys(β,β-pentamethylene)]GHRGD[hPhe]RCR
modifications: disulfide 2-10; also: Pmc2 from Boc-D/L-Pmc, configuration not given here
Turning to B3, in the assay with αvβ5 [3], half-maximal inhibition (IC50) required 4250 nM.

B4: (Pmp)GHRGDLRCA (peptide)
peptide: [Cyclohexylacetyl(1-SH)]GHRGDLRCA
modifications: disulfide 1-9 (inferred)
Take B4: inhibition in assay [2] was half-maximal at 20 nM (IC50).

B5: Ac-CNPRGD(Y-OMe)KC-NH2 (peptide)
peptide: Ac-CNPRGD[Tyr(OMe)″]KC-NH2
modifications: disulfide 1-9
B5 returned an IC50 with αvβ5 [4] of 5820 nM.

B6: R(Pmc)GHRGD(p-I-F)RCR (peptide)
peptide: R[Cys(β,β-pentamethylene)]GHRGD[Phe(4-I)]RCR
modifications: disulfide 2-10; also: Pmc2 from Boc-D/L-Pmc
Turning to B6, the IC50 came to 4030 nM with αvβ5 [3], 10 nM in [5] and 4190 nM with Fibronectin receptor [6].

B7: R(Pmc)GHRGDLRCR (peptide)
peptide: R[Cys(β,β-pentamethylene)]GHRGDLRCR
modifications: disulfide 2-10 (inferred); also: D,L-Pmc mixture at 2
As for B7, the IC50 with αvβ5 [3] and with αvβ5 [1] was 1580 nM throughout.

B8: Ac-CNPRGD(Y-OMe)EC-NH2 (peptide)
peptide: Ac-CNPRGD[Tyr(OMe)″]EC-NH2
modifications: disulfide 1-9
Consider B8, for which half-maximal inhibition with αvβ5 [4] (IC50) required 9470 nM.

B9: R(Pmc)GHRGD(O-n-butyl-Tyr)RCR (peptide)
peptide: R[Cys(β,β-pentamethylene)]GHRGD[Tyr(nBu)]RCR
modifications: disulfide 2-10; also: Pmc from Boc-D/L-Pmc, isomer not given here
The molecule B9 showed an IC50 in assay [5] of 30 nM.

B10: Ac-CNPRGD(Y-OMe)OC-NH2 (peptide)
peptide: Ac-CNPRGD[Y‑OMe][code O]C-NH2
modifications: disulfide 1-9 (inferred); reading uncertain
Take B10: the IC50 stood at 7700 nM with αvβ5 [4] and 50 nM in [7].

B11: R(Pmc)GHRGD(Y-OMe)RCR (peptide)
peptide: R[Cys(β,β-pentamethylene)]GHRGD[Tyr(Me)]RCR
modifications: disulfide 2-10; also: Pmc2 made from D,L-Pmc, configuration not given here
With B11, the concentration for half-maximal inhibition (IC50) with αvβ5 [3], with αvβ5 [8] and with αvβ5 [9] was 1050 nM each time.

B12: R(Pmc)GHRGDFRCR (peptide)
peptide: R[Cys(β,β-pentamethylene)]GHRGDFRCR
modifications: disulfide 2-10
For B12, the IC50 in [5] is 40 nM.

B13: R(Pen)GHRGDLRCR (peptide)
peptide: R[Pen]GHRGDLRCR
modifications: disulfide 2-10
Take B13: the IC50 with αvβ5 [1] is 4930 nM; in assay [2], 40 nM.

B14: G(Pen)GHRGDLRCA (peptide)
peptide: G[Pen]GHRGDLRCA
modifications: disulfide 2-10
In the assay with αvβ5 [1], B14 yielded an IC50 of 8260 nM.

B15: R(D-Pen)GHRGDLRCR (peptide)
peptide: R[dPen]GHRGDLRCR
modifications: disulfide 2-10
Take B15: it took 10000 nM to reach half-maximal inhibition with αvβ5 [1] (IC50).

B16: R(Pmc)GHRGD(O-Me-Tyr)RCR (peptide)
peptide: R[Cys(β,β-pentamethylene)]GHRGD[Tyr(Me)]RCR
modifications: disulfide 2-10; also: Pmc2 made from D,L-Pmc, configuration not given here
For the molecule B16, the IC50 with Fibronectin receptor [6], with Fibronectin receptor [10] and with Fibronectin receptor [11] was 980 nM each time.

B17: Ac-CNPRGD(Y-OMe)(Cit)C-NH2 (peptide)
peptide: CNPRGDXXC
modifications: N-terminal acetyl; O-Me-Tyr at 7; Cit at 8; C-terminal amide
In turn, B17 registered an IC50 with αvβ5 [4] of 3460 nM.
